We go through one substance from patent US20230052680A1.

As a reminder, the Kd is a measure of binding affinity in units of concentration. A higher Kd goes with lower affinity. Broadly, the koff is the rate constant with which the complex falls apart. What is called kon is the second-order rate constant of association.

In this test the target is human FGFR2b (beta)-Fc (human) (UniProt P21802). In words: surface plasmon resonance (Biacore T200), hFGFR2b-Fc amine-coupled to a CM5 chip, antibody injected. A general note: SPR reads the build-up and loss of mass on a sensor chip optically.

Take FPA144 (antibody): the Kd came to 0.75 nM, the koff was 7.77e-05 s⁻¹ and the kon is 104000 M⁻¹ s⁻¹.
